Results published in the nanobody polyreactivity screen of Harvey et al. (2022).

Test: yeast display, Sf9 membrane polyspecificity reagent, FACS + sequencing; frameworks hold sequencing errors
Procedure, shortened: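 Nanobodies came from a synthetic yeast display library in Saccharomyces cerevisiae BJ5465, induced with galactose for 36–48 hours and stained for 1 hour at 4 °C with 10% biotinylated, detergent-solubilized Sf9 membrane reagent. Cells were enriched on streptavidin microbeads and then FACS-sorted, with low and high (top ~1%) gates set on anti-HA fluorescence for expression and streptavidin fluorescence for reagent binding. Each polyreactivity label reflects the gate a clone came from. Genes were amplified by colony PCR, sequenced by MiSeq 2 × 250 and filtered by CDR length.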

**Q.** For “QVQLVESGGGLVQAAGSLRFSWAASRSIFRQYGMGWYRQAHGKERELVARISRRSGTTYYADSVKGRFTISRDYAKNTVYLQMNSLKPEDSAVSYCAAVPGWIHVDYWGQGTQVTVSS”, which “polyreactivity (PSR sort gate)” value is on record?
**A.** high polyreactivity

**Q.** Which “polyreactivity (PSR sort gate)” value does the source give for “QVQLVESGGGLVQAAGSLRLSCAASGLPSVDAMGWYRQAPGKERELVAAISLTGSSTYYADSVKGRFTISRDNAKNTVYLQRNSLKPEDTAVYYCAADSSYTPNDDNWGQGTQVTVSS” here?
**A.** low polyreactivity

**Q.** With “QVQLVESGGGLVQAAGSLRLSCAASGRISRTNAMGWYRQAPGKERQLVATINSGTGTNYADSVKGRFTISRDNAKNTVYLQMNSLKPEDTEVYYCAARYRYWPKYYPVSYRYDYWGQGTQVTVSS” as the sequence, how does the “polyreactivity (PSR sort gate)” value read?
**A.** low polyreactivity

**Q.** For “QVQLVESGGGLVQAAGSLRLSCAASGRTFYRNAMGWYRQAPGKERELVAAISQSGGSTYYADSVKGRFTISRDNAKNTVYLQMNSLKPEDTAVYYWAAGNSRRVGMDYWGQGTQVTVSS”, which “polyreactivity (PSR sort gate)” value is on record?
**A.** high polyreactivity

**Q.** Which “polyreactivity (PSR sort gate)” value does the source give for “QVQLVESGGGLVQAAGSLRLSCAASGSIFRPYAMGWYRQAPGKERELVATITSRGGSTYYADSVKGRFTISRDNAKNTVYLQMNSMKPEDTAVYYCAARYISSYGRTQDYSRYDYWGQGTQVNVSS” here?
**A.** high polyreactivity

**Q.** Which “polyreactivity (PSR sort gate)” value does the source give for “QVQLVESGGGLVQAAGSLRLSCAASGSIFVSYAMGWYRPAPWKEREFVATINYSGGSSYYADSVKGRFTISRDNAKNTVYLQMNSLKPEDTAVYYCAARPYHHGYWLNYGYWGQGTQVTVSS” here?
**A.** high polyreactivity

**Q.** Which “polyreactivity (PSR sort gate)” value does the source give for “QVQLVESGGGLVQAAGSLRLSCAASGSTFTLNAMGWNRQAPGKERELVAAITSGGRTKYADSVKGRFTISRDNAKNTVYLQMNSLKPEDTAVYYCAATFAGGYGYWGQGTQVTVSS” here?
**A.** high polyreactivity

**Q.** For “QVQLVESGGGLVQAGASLRLSCAASGFIFGKYAMGWYRQAPGKERELVAAISSSGGSTYYADSVKGRFTISRDTAKNTVYLQMNSLKPEDTAGYYCNAKVRGTNTAGVDYWGQGTQVTVSS”, which “polyreactivity (PSR sort gate)” value is on record?
**A.** high polyreactivity

**Q.** For “QVQLVESGGGLVQAGASLRLSCAASGFIYSFNTMGWYRQAPGKERELVAAITSGGSTNYADSVKGRFTISRDNAKNTVYLQMNSLKPEDTAVYYCNRQYYSYYGNDYWGQGTQVTVSS”, which “polyreactivity (PSR sort gate)” value is on record?
**A.** high polyreactivity

**Q.** With “QVQLVESGGGLVQAGASLRLSCAASGFTFVHYALGWYRQAPGKERELVAAITWNGGRTYYADSVQGRFTISRDNAKNTVYFQMNSLKPEDTAVYYCNAVRITYGRYDLDYWGQGTQVTVSS” as the sequence, how does the “polyreactivity (PSR sort gate)” value read?
**A.** high polyreactivity

**Q.** With “QVQLVESGGGLVQAGASLRLSCAASGGTFLIYGRGWYRQAPGKERELVAAISRSGGSTYYADSVKGRFTISRDNAKNTVYLQMNSLKPEDTAVYYCAADSGYLSPYDYWGQGTQVTVSS” as the sequence, how does the “polyreactivity (PSR sort gate)” value read?
**A.** low polyreactivity

**Q.** For “QVQLVESGGGLVQAGASLRLSCAASGIIFPRYAMGWSRQAPGKERDLVAAISYSGGSTYYADSVKGRFTISRDNAKNTVYLQMNSLKPEDPAVYYCAAKWGWKVGYSYYYWGQGTQVTVSS”, which “polyreactivity (PSR sort gate)” value is on record?
**A.** high polyreactivity

**Q.** For “QVQLVESGGGLVQAGASLRLSCAASGITFYSYGMGWYRQAPGKERELVAAISGSGTTTYADSVKGRFTISRDNAKNPVYLQMNSLKPEDTAVYYCAAVARYPRWHHYYWGQGTQVTVSS”, which “polyreactivity (PSR sort gate)” value is on record?
**A.** low polyreactivity

**Q.** Which “polyreactivity (PSR sort gate)” value does the source give for “QVQLVESGGGLVQAGASLRLSCAASGLTYSHYAMGWYRQAPGKERQLVAGISSRGGNTYYADSVKGRFTISRDNAKNTVYLQMNSLKPEDTAVYYCNAPKPKRAYDYWGQGTQVTVSS” here?
**A.** high polyreactivity

**Q.** Which “polyreactivity (PSR sort gate)” value does the source give for “QVQLVESGGGLVQAGASLRLSCAASGRTFGGYAMGWYRQAPGKERQLVAAISSSGTGTSYADSVKGRFTISRDNAKNTVYFEMNSLKPEDTAVYYCAARSSRTVLSIQDDDYWGQGTQVTVSS” here?
**A.** low polyreactivity

**Q.** For “QVQLVESGGGLVQAGASLRLSCAASGRTFYRYAMGWYRQAPGKEREFVAAISNGGSNTRYADSVKGRFTISRDTAKNNVYFQMNSLKPEETAVYYCAARAYQHYNWGQGTQVTVSS”, which “polyreactivity (PSR sort gate)” value is on record?
**A.** high polyreactivity

**Q.** With “QVQLVESGGGLVQAGASLRLSCAASGSIFGGYAMGWYRQAPGKERELVAAISRSGRTNYADSVKGRFTISRDNAKNTVYLQMNSLKPEDTAVYYCAVDKRYGRVVGRDYDYWGQGTQVTVSS” as the sequence, how does the “polyreactivity (PSR sort gate)” value read?
**A.** high polyreactivity

**Q.** For “QVQLVESGGGLVQAGASLRLSCAASGSISKSYAMGWYRQAPGKERELVAAISWRGGSTYADSVKGRFTISRDNAKNTVYLQMNSLKPEDTAVYYCAATNYGTFWGGQSERYDYWGQGTQLTVSS”, which “polyreactivity (PSR sort gate)” value is on record?
**A.** low polyreactivity

**Q.** For “QVQLVESGGGLVQAGASLRLSCAASGSNSKSYAMGWYRPAPGKERELVAAISWRGGSTYADSVKGRFTNSRDNAKNTVYFQMNSQKPVDTAVYYWAATNYGTFWGGQSERYDYWGQGTQVTVSS”, which “polyreactivity (PSR sort gate)” value is on record?
**A.** low polyreactivity

**Q.** With “QVQLVESGGGLVQAGASLRLSCAASGSTFDRNVMGWYRQAPGKERELVAAISRVSSTNYADSVKGRFTISRDNAKNTVYLQMNSLKPEDTAVYYCAADRAGSIMNYWGQGTQVTVSS” as the sequence, how does the “polyreactivity (PSR sort gate)” value read?
**A.** low polyreactivity

**Q.** With “QVQLVESGGGLVQAGASLRLSCAASGSTFGSYTMGWYRQAPWKERELVAAINWTGGNTYYADSVKGRFTISRDYAKNTVYLQMNSLKPEDTAVYYCAAAFYIYGVEGDYWGQGTQVTVSS” as the sequence, how does the “polyreactivity (PSR sort gate)” value read?
**A.** low polyreactivity

**Q.** Which “polyreactivity (PSR sort gate)” value does the source give for “QVQLVESGGGLVQAGASLRLSCAASGSTFKYYTMGWYRQAPGKERELVAAISFSGARTYYADSVKGRFTISRDNAKNTVYLQMNSLKPEDTAVYYCAKDRQYYYWGQGTQVTVSS” here?
**A.** high polyreactivity

**Q.** Which “polyreactivity (PSR sort gate)” value does the source give for “QVQLVESGGGLVQAGASLRLSCAASGYIYPKYGMGWYIQAPGKERELVAAITGSGGSTYYADSVMGRITISRDNAKNTVYLHMNSLKPEDTAVYYCAKRSWIEYDYWGQGTQVTVSS” here?
**A.** low polyreactivity

**Q.** Which “polyreactivity (PSR sort gate)” value does the source give for “QVQLVESGGGLVQAGASLRLSCAASVIIFKIYAMGWYRQAPGKERELVAAITRSGTRTYYADSVKGRFTISRDNAKNTVYLQMNSLKPEDTAVYYCNAYTTLAYDLDYWGQGTQVTVSS” here?
**A.** high polyreactivity

**Q.** For “QVQLVESGGGLVQAGASLSLSCAASGRTFGGNAMGWYRQAPGKEREFVAAISRSGTSTYYADSVKGRFTISRDNAKNTVYFQMNSLKPEATAVYYCAALNYLKFAHKYDYWGQGTQVTVSS”, which “polyreactivity (PSR sort gate)” value is on record?
**A.** low polyreactivity

**Q.** With “QVQLVESGGGLVQAGCILRLSCASSGIIFSYAMGWYRQAPGKESELVAAISGRDGSTYYADSVKGRFTISRDNAKNTVYLQMNSLKPEDTAVYYCAKRISYLPVEMDYWGHGTQVTVSS” as the sequence, how does the “polyreactivity (PSR sort gate)” value read?
**A.** low polyreactivity

**Q.** With “QVQLVESGGGLVQAGCRLRLSCAASGRTFFPYAMGWYRQAPGKERELVAAITTGDITNYADSVKGRFTISRDNAKNTVYLQMNSLKPEDTAVYYCAARGYASWSYGGYPLKLDYWGQGTQVTVSS” as the sequence, how does the “polyreactivity (PSR sort gate)” value read?
**A.** low polyreactivity

**Q.** With “QVQLVESGGGLVQAGCSLRISCADSGRTFDEYAMGWYRQAPGKERELVAAISGSAGSTYYADSVKGRFTISRDNAKNSVYLQMNSLKPEDTAVYYCNAEVYGELYYWGQGTQVTVSS” as the sequence, how does the “polyreactivity (PSR sort gate)” value read?
**A.** low polyreactivity

**Q.** With “QVQLVESGGGLVQAGCSLRLICAASGIIFRRYAMGWYRQAPGKERELVAAISSSGGSTYYADSVKGRFTISRDNAKNTVYLQMNSLKPEDTAVYYCNAVTSVQARPRNYYYWGQGTQVTVSS” as the sequence, how does the “polyreactivity (PSR sort gate)” value read?
**A.** high polyreactivity

**Q.** Which “polyreactivity (PSR sort gate)” value does the source give for “QVQLVESGGGLVQAGCSLRLICAASGYIFVIYAMGWNRQAPGKERELVAAISSSGAGTYYADSVKGRFTISRDNAKNTVYLQMNSLKPEDTAVYYCAASESAVFDGYDYWGQGTQVTVSS” here?
**A.** high polyreactivity
